Reference: publication PMC6825360, “Chaetomella raphigera β-glucosidase D2-BGL has intriguing structural features and a high substrate affinity that renders it an efficient cellulase supplement for lignocellulosic biomass hydrolysis” (Biotechnology for Biofuels, 2019)

Assays:
D2-BGL [1] = target: D2-BGL (Chaetomella raphigera, UniProt A0A068FT77, INS255S/N255I, form not given); assay: cellobiase assay, glucose release, crude secreted enzyme; type: biochemical; details: crude enzyme from P. pastoris culture; mutant N255* (N255 replaced by two residues I-S); wild type measured beside it 1.45 mM
D2-BGL [2] = target: T1, D2-BGL (Chaetomella raphigera, UniProt A0A068FT77); assay: inhibition of pNPG hydrolysis at […] glucose, absorbance of pNP at […] nm, non-linear fit; type: biochemical; details: read-out: Ki glucose; substrate pNPG; pH 5 (50 mM sodium acetate), 55 °C; product inhibition
T1 construct: secreted recombinant from Pichia pastoris SMD1168 (pGAPZalphaC), His-tagged (strain #5 has an extra N-terminal 6-His), IMAC purified, N-hyperglycosylated, smear 95-180 kDa; TIM barrel 1-307, alpha/beta sandwich 319-521, FnIII 573-712
T1 sequence (A0A068FT77 1-722): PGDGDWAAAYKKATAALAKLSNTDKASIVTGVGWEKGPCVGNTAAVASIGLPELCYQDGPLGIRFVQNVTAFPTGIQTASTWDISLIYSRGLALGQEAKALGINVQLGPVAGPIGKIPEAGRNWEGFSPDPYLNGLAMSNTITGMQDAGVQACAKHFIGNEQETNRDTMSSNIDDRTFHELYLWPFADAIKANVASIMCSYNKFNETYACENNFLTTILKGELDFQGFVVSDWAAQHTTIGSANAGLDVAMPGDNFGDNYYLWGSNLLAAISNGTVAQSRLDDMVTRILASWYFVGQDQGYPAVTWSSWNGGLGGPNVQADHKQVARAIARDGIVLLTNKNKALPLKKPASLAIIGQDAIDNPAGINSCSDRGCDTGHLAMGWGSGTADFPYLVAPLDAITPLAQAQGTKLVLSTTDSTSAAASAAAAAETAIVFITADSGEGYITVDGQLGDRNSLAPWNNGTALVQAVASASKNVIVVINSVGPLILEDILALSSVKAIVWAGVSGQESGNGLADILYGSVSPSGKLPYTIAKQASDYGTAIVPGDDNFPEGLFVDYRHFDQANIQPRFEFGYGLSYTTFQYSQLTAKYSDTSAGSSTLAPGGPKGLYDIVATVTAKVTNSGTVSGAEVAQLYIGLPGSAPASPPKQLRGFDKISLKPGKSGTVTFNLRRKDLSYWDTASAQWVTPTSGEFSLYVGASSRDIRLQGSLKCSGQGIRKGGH

[3] = cellobiase assay after non-denaturing deglycosylation; details: glycan lost; control: non-deglycosylated enzyme
[4] = specific activity of purified enzyme; details: glycan lost; control: wild type
[5] = productivity from culture supernatant activity, P. pastoris; details: glycan lost; control: wild type
purified protein = substrate: O=[N+]([O-])c1ccc(O[C@@H]2O[C@H](CO)[C@@H](O)[C@H](O)[C@H]2O)cc1; assay: purified protein; details: pH 5 (50 mM sodium acetate), 55 °C, 10 min

OC[C@H]1O[C@@H](O[C@H]2[C@H](O)[C@@H](O)C(O)O[C@@H]2CO)[C@H](O)[C@@H](O)[C@@H]1O (stereo partly drawn) [cellobiose]
Km (D2-BGL [1]): 2840 µM

OC[C@H]1OC(O)[C@H](O)[C@@H](O)[C@@H]1O (stereo partly drawn) [glucose]
Ki (D2-BGL [2]): 2420 ± 690 µM

B1: β-glucosidase D2-BGL: Endo H (protein)
parent chain: PGDGDWAAAYKKATAALAKLSNTDKASIVTGVGWEKGPCVGNTAAVASIGLPELCYQDGPLGIRFVQNVTAFPTGIQTASTWDISLIYSRGLALGQEAKALGINVQLGPVAGPIGKIPEAGRNWEGFSPDPYLNGLAMSNTITGMQDAGVQACAKHFIGNEQETNRDTMSSNIDDRTFHELYLWPFADAIKANVASIMCSYNKFNETYACENNFLTTILKGELDFQGFVVSDWAAQHTTIGSANAGLDVAMPGDNFGDNYYLWGSNLLAAISNGTVAQSRLDDMVTRILASWYFVGQDQGYPAVTWSSWNGGLGGPNVQADHKQVARAIARDGIVLLTNKNKALPLKKPASLAIIGQDAIDNPAGINSCSDRGCDTGHLAMGWGSGTADFPYLVAPLDAITPLAQAQGTKLVLSTTDSTSAAASAAAAAETAIVFITADSGEGYITVDGQLGDRNSLAPWNNGTALVQAVASASKNVIVVINSVGPLILEDILALSSVKAIVWAGVSGQESGNGLADILYGSVSPSGKLPYTIAKQASDYGTAIVPGDDNFPEGLFVDYRHFDQANIQPRFEFGYGLSYTTFQYSQLTAKYSDTSAGSSTLAPGGPKGLYDIVATVTAKVTNSGTVSGAEVAQLYIGLPGSAPASPPKQLRGFDKISLKPGKSGTVTFNLRRKDLSYWDTASAQWVTPTSGEFSLYVGASSRDIRLQGSLKCSGQGIRKGGH
enzymatic_activity, other: specific activity [3]: no change, 185 ± 21 vs 209 ± 14

B2: β-glucosidase D2-BGL: N68Q (protein)
parent chain: PGDGDWAAAYKKATAALAKLSNTDKASIVTGVGWEKGPCVGNTAAVASIGLPELCYQDGPLGIRFVQNVTAFPTGIQTASTWDISLIYSRGLALGQEAKALGINVQLGPVAGPIGKIPEAGRNWEGFSPDPYLNGLAMSNTITGMQDAGVQACAKHFIGNEQETNRDTMSSNIDDRTFHELYLWPFADAIKANVASIMCSYNKFNETYACENNFLTTILKGELDFQGFVVSDWAAQHTTIGSANAGLDVAMPGDNFGDNYYLWGSNLLAAISNGTVAQSRLDDMVTRILASWYFVGQDQGYPAVTWSSWNGGLGGPNVQADHKQVARAIARDGIVLLTNKNKALPLKKPASLAIIGQDAIDNPAGINSCSDRGCDTGHLAMGWGSGTADFPYLVAPLDAITPLAQAQGTKLVLSTTDSTSAAASAAAAAETAIVFITADSGEGYITVDGQLGDRNSLAPWNNGTALVQAVASASKNVIVVINSVGPLILEDILALSSVKAIVWAGVSGQESGNGLADILYGSVSPSGKLPYTIAKQASDYGTAIVPGDDNFPEGLFVDYRHFDQANIQPRFEFGYGLSYTTFQYSQLTAKYSDTSAGSSTLAPGGPKGLYDIVATVTAKVTNSGTVSGAEVAQLYIGLPGSAPASPPKQLRGFDKISLKPGKSGTVTFNLRRKDLSYWDTASAQWVTPTSGEFSLYVGASSRDIRLQGSLKCSGQGIRKGGH
enzymatic_activity, other: specific activity [4]: no change, 216 ± 23 vs 197 ± 3 | expression_or_secretion, other: productivity [5]: decreases, 4.5 vs 9.6, N68Q mutant (0.98 ± 0.22 U/mL) ... relative to that of wild-type (1.89 ± 0.18 U/mL)

B3: D2-BGL (Chaetomella raphigera) (protein)
chain: PGDGDWAAAYKKATAALAKLSNTDKASIVTGVGWEKGPCVGNTAAVASIGLPELCYQDGPLGIRFVQNVTAFPTGIQTASTWDISLIYSRGLALGQEAKALGINVQLGPVAGPIGKIPEAGRNWEGFSPDPYLNGLAMSNTITGMQDAGVQACAKHFIGNEQETNRDTMSSNIDDRTFHELYLWPFADAIKANVASIMCSYNKFNETYACENNFLTTILKGELDFQGFVVSDWAAQHTTIGSANAGLDVAMPGDNFGDNYYLWGSNLLAAISNGTVAQSRLDDMVTRILASWYFVGQDQGYPAVTWSSWNGGLGGPNVQADHKQVARAIARDGIVLLTNKNKALPLKKPASLAIIGQDAIDNPAGINSCSDRGCDTGHLAMGWGSGTADFPYLVAPLDAITPLAQAQGTKLVLSTTDSTSAAASAAAAAETAIVFITADSGEGYITVDGQLGDRNSLAPWNNGTALVQAVASASKNVIVVINSVGPLILEDILALSSVKAIVWAGVSGQESGNGLADILYGSVSPSGKLPYTIAKQASDYGTAIVPGDDNFPEGLFVDYRHFDQANIQPRFEFGYGLSYTTFQYSQLTAKYSDTSAGSSTLAPGGPKGLYDIVATVTAKVTNSGTVSGAEVAQLYIGLPGSAPASPPKQLRGFDKISLKPGKSGTVTFNLRRKDLSYWDTASAQWVTPTSGEFSLYVGASSRDIRLQGSLKCSGQGIRKGGH
Km (purified protein): 200 ± 100 µM | Vmax (purified protein): 419 µmol/min/mg

B4: β-glucosidase D2-BGL: T431A (protein)
parent chain: PGDGDWAAAYKKATAALAKLSNTDKASIVTGVGWEKGPCVGNTAAVASIGLPELCYQDGPLGIRFVQNVTAFPTGIQTASTWDISLIYSRGLALGQEAKALGINVQLGPVAGPIGKIPEAGRNWEGFSPDPYLNGLAMSNTITGMQDAGVQACAKHFIGNEQETNRDTMSSNIDDRTFHELYLWPFADAIKANVASIMCSYNKFNETYACENNFLTTILKGELDFQGFVVSDWAAQHTTIGSANAGLDVAMPGDNFGDNYYLWGSNLLAAISNGTVAQSRLDDMVTRILASWYFVGQDQGYPAVTWSSWNGGLGGPNVQADHKQVARAIARDGIVLLTNKNKALPLKKPASLAIIGQDAIDNPAGINSCSDRGCDTGHLAMGWGSGTADFPYLVAPLDAITPLAQAQGTKLVLSTTDSTSAAASAAAAAETAIVFITADSGEGYITVDGQLGDRNSLAPWNNGTALVQAVASASKNVIVVINSVGPLILEDILALSSVKAIVWAGVSGQESGNGLADILYGSVSPSGKLPYTIAKQASDYGTAIVPGDDNFPEGLFVDYRHFDQANIQPRFEFGYGLSYTTFQYSQLTAKYSDTSAGSSTLAPGGPKGLYDIVATVTAKVTNSGTVSGAEVAQLYIGLPGSAPASPPKQLRGFDKISLKPGKSGTVTFNLRRKDLSYWDTASAQWVTPTSGEFSLYVGASSRDIRLQGSLKCSGQGIRKGGH
enzymatic_activity, other: specific activity [4]: no change, 189 ± 11 vs 197 ± 3 | expression_or_secretion, other: productivity [5]: decreases, 3.2 vs 9.6, T431A mutant (0.61 ± 0.05 U/mL)
